Measured values: patent publication US7135457 (CYTOGEN, dated 2006)

T1: human PEPT1 (hPEPT1) receptor domain, amino acid residues 391-571, His-tag fusion protein (human, UniProt P46059 391-571)
T1 construct: Expressed as His-tag fusion, purified under denaturing conditions, coated on plates; not shown: poly-histidine tag (pET His-tag) at the NH2-terminal end
T1 sequence: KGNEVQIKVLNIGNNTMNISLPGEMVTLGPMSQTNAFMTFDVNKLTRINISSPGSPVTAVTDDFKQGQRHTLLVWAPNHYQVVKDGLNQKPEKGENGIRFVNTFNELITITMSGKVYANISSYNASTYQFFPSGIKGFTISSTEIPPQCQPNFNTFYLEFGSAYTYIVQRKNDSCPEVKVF


biological target: T1, human PEPT1 (hPEPT1) receptor domain, …; test: phage ELISA, OD on hPEPT1 over OD on BSA
Description: (§1) 6.6. Receptor ELISA Procedure 96 well plates were coated overnight with GIT receptor, BSA and, optionally, IDE (insulin degrading enzyme, an irrelevant His-fusion protein) or hTF. The plates were blocked for one hour with 0.5% BSA-PBS. After clarification, the amplified phage were diluted 1:100 in 1% BSA plus 0.05% Tween 20 in PBS and added to the plates. Following incubation of the plates on a rotator for 1 to 2 hours, the plates were washed 5 times with 1% BSA plus 0.05% Tween 20 in PBS. […] After the plates were washed 5 times, as described above, TMB substrate was added to the wells. The plates were read at 650 nm absorbance.

Binder	PEPT1/BSA [ratio]
RGWKCEGSQAAYGDKDIGRSRGCGSITKNNTNHAHPSHGAVAKI (pIII and flanks not included) [phage 5PAX12]	6
SYCRVKGGGEGGHTDSNLARSGCGKVARTSRLQHINPRATPPSR (pIII and flanks not included) [phage PAX15]	4
SWTRWGKHTHGGFVNKSPPGKNATSPYTDAQLPSDQGPP (pIII and flanks not included) [phage PAX16]	4
SSADAEKCAGSLLWWGRQNNSGCGSPTKKHLKHRNRSQTSSSSH (pIII and flanks not included) [phage P90]	9
SFLRFQSPRFEDYSRTISRLRNATNPSNVSDAHNNRALA (pIII and flanks not included) [phage PAX18]	5
RTFENDGLGVGRSIQKKSDRWYASHNIRSHFASMSPAGK (pIII and flanks not included) [phage PAX14]	8
SSKVSSPRDPTVPRKGGNVDYGCGHRSSARMPTSALSSITKCYT (pIII and flanks not included) [phage PAX38]	5
SFQVYPDHGLERHALDGTGPLYAMPGRWIRARPQNRDRQ (pIII and flanks not included) [phage PAX45]	5
RASTQGGRGVAPEFGASVLGRGCGSATYYTNSTSCKDAMGHNYS (pIII and flanks not included) [phage PAX40]	6
RWPSVGYKGNGSDTIDVHSNDASTKRSLIYNHRRPLFP (pIII and flanks not included) [phage PAX9]	4
SQVDSFRNSFRWYEPSRALCHGCGKRDTSTTRIHNSPSDSYPTR (pIII and flanks not included) [phage PAX17]	5
RSITDGGINEVDLSSVSNVLENANSHRAYRKHRPTLKRP (pIII and flanks not included) [phage PAX35]	7
SRCTDNEQCPDTGTRSRSVSNARYFSSRLLKTHAPHRP (pIII and flanks not included) [phage PAX46]	6
RWCEKHKFTAARCSAGAGFERDASRPPQPAHRDNTNRNA (pIII and flanks not included) [phage PAX43]	5
SARDSGPAEDGSRAVRLNGVENANTRKSSRSNPRGRRHP (pIII and flanks not included) [phage P31]	11

biological target: T1, human PEPT1 (hPEPT1) receptor domain, …; test: phage ELISA, coated hPEPT1 domain
Description: as §1

Binder	OD [OD 650 nm]
RGWKCEGSQAAYGDKDIGRSRGCGSITKNNTNHAHPSHGAVAKI (pIII and flanks not included) [phage 5PAX12]	0.227
SYCRVKGGGEGGHTDSNLARSGCGKVARTSRLQHINPRATPPSR (pIII and flanks not included) [phage PAX15]	0.301
SWTRWGKHTHGGFVNKSPPGKNATSPYTDAQLPSDQGPP (pIII and flanks not included) [phage PAX16]	0.648
SSADAEKCAGSLLWWGRQNNSGCGSPTKKHLKHRNRSQTSSSSH (pIII and flanks not included) [phage P90]	1.12
SFLRFQSPRFEDYSRTISRLRNATNPSNVSDAHNNRALA (pIII and flanks not included) [phage PAX18]	0.416
RTFENDGLGVGRSIQKKSDRWYASHNIRSHFASMSPAGK (pIII and flanks not included) [phage PAX14]	1.1
SSKVSSPRDPTVPRKGGNVDYGCGHRSSARMPTSALSSITKCYT (pIII and flanks not included) [phage PAX38]	0.292
SFQVYPDHGLERHALDGTGPLYAMPGRWIRARPQNRDRQ (pIII and flanks not included) [phage PAX45]	0.419
RASTQGGRGVAPEFGASVLGRGCGSATYYTNSTSCKDAMGHNYS (pIII and flanks not included) [phage PAX40]	0.461
RWPSVGYKGNGSDTIDVHSNDASTKRSLIYNHRRPLFP (pIII and flanks not included) [phage PAX9]	0.312
SQVDSFRNSFRWYEPSRALCHGCGKRDTSTTRIHNSPSDSYPTR (pIII and flanks not included) [phage PAX17]	0.514
RSITDGGINEVDLSSVSNVLENANSHRAYRKHRPTLKRP (pIII and flanks not included) [phage PAX35]	0.474
SRCTDNEQCPDTGTRSRSVSNARYFSSRLLKTHAPHRP (pIII and flanks not included) [phage PAX46]	0.429
RWCEKHKFTAARCSAGAGFERDASRPPQPAHRDNTNRNA (pIII and flanks not included) [phage PAX43]	0.345
SARDSGPAEDGSRAVRLNGVENANTRKSSRSNPRGRRHP (pIII and flanks not included) [phage P31]	0.807

biological target: T2, human sucrase-isomaltase complex (hSI) receptor domain, amino acid residues 272-667, His-tag fusion protein (human, UniProt P14410 272-667); test: phage ELISA, OD on hSI over OD on BSA
T2 construct: Expressed as His-tag fusion, purified under denaturing conditions (urea or guanidine HCl), coated on plates; also called hS1 receptor domain; not shown: poly-histidine tag (pET His-tag) at the NH2-terminal end
T2 sequence (P14410 272-667, one chain of several): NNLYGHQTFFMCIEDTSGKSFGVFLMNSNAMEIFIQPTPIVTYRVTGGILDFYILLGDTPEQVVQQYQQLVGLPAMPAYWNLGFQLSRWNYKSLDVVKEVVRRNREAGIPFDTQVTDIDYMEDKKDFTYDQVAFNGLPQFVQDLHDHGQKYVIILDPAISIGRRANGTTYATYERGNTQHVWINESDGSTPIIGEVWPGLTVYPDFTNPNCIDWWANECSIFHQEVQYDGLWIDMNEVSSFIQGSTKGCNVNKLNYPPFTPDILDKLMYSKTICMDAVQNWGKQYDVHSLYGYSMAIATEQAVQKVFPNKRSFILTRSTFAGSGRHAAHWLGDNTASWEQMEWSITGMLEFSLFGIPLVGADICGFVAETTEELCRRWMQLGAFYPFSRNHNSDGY

Binder	hSI/BSA [ratio]
RSGAYESPDGRGGRSYVGGGGGCGNIGRKHNLWGLRTASPACWD (pIII and flanks not included) [phage S15]	9
RGAADQRRGWSENLGLPRVGWDAIAHNSYTFTSRRPRPP (pIII and flanks not included) [phage SNi38]	6
SHSGGMNRAYGDVFRELRDRWNATSHHTRPTPQLPRGPN (pIII and flanks not included) [phage SNi28]	8
SPCGGSWGRFMQGGLFGGRTDGCGAHRNRTSASLEPPSSDY (pIII and flanks not included) [phage SNi34]	7
RVGQCTDSDVRRPWARSCAHQGCGAGTRNSHGCITRPLRQASAH (pIII and flanks not included) [phage SNi10]	11

biological target: T2, human sucrase-isomaltase complex (hSI) …; test: phage ELISA, coated hSI domain

Binder	OD [OD 650 nm]
RSGAYESPDGRGGRSYVGGGGGCGNIGRKHNLWGLRTASPACWD (pIII and flanks not included) [phage S15]	0.478
RGAADQRRGWSENLGLPRVGWDAIAHNSYTFTSRRPRPP (pIII and flanks not included) [phage SNi38]	0.466
SHSGGMNRAYGDVFRELRDRWNATSHHTRPTPQLPRGPN (pIII and flanks not included) [phage SNi28]	0.942
SPCGGSWGRFMQGGLFGGRTDGCGAHRNRTSASLEPPSSDY (pIII and flanks not included) [phage SNi34]	0.761
RVGQCTDSDVRRPWARSCAHQGCGAGTRNSHGCITRPLRQASAH (pIII and flanks not included) [phage SNi10]	0.57
